In IntAct's records for PubMed 24612608:

B1: Beta-secretase 1 (Homo sapiens), P56817 (parent)
chain: MAQALPWLLLWMGAGVLPAHGTQHGIRLPLRSGLGGAPLGLRLPRETDEEPEEPGRRGSFVEMVDNLRGKSGQGYYVEMTVGSPPQTLNILVDTGSSNFAVGAAPHPFLHRYYQRQLSSTYRDLRKGVYVPYTQGKWEGELGTDLVSIPHGPNVTVRANIAAITESDKFFINGSNWEGILGLAYAEIARPDDSLEPFFDSLVKQTHVPNLFSLQLCGAGFPLNQSEVLASVGGSMIIGGIDHSLYTGSLWYTPIRREWYYEVIIVRVEINGQDLKMDCKEYNYDKSIVDSGTTNLRLPKKVFEAAVKSIKAASSTEKFPDGFWLGEQLVCWQAGTTPWNIFPVISLYLMGEVTNQSFRITILPQQYLRPVEDVATSQDDCYKFAISQSSTGTVMGAVIMEGFYVVFDRARKRIGFAVSACHVHDEFRTAAVEGPFVTLDMEDCGYNIPQTDESTLMTIAYVMAAICALFMLPLCLMVCQWRCLRCLRQQHDDFADDISLLK
partner: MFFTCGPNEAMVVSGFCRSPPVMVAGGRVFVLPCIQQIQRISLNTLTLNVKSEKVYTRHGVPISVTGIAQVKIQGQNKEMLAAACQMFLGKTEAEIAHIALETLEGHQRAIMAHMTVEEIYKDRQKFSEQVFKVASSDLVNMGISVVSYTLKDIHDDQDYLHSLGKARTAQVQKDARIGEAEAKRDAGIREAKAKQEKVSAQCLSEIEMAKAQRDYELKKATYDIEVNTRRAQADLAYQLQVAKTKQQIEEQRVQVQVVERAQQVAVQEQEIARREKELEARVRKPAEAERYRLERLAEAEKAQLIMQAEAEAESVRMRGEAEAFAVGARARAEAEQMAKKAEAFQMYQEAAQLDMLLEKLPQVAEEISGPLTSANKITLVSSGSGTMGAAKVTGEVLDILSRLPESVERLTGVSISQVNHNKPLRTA

Variants of: B1
Details: with flot1_rat Flot1, Q9Z1E1

Row | Variant | effect of a mutation on the interaction
1 | L499A;L500A | disrupting interaction
